The source of these data is the supplement of paper PMC5998384.

Series [1] has as its system HeLa Kyoto. As to the kind of experiment: solubility change mitosis vs G1/S (difference of NP-40 vs SDS log2 ratios) (log2 ratio difference); higher = more soluble in mitosis.
The subject of series [2] is HeLa Kyoto. The series is described as follows: melting temperature (median over replicates), in situ; higher = more thermally stable.
Series [3] deals with HeLa Kyoto. As to the kind of experiment: thermal stability score vs G1/S (z-score of summed log2 fold changes over temperatures); higher = more thermally stable than in G1/S.
Series [4] deals with HeLa Kyoto. The series is described as follows: solubility in G1/S (NP-40 vs SDS abundance) (log2 ratio); higher = more soluble. As to conditions: cell cycle stage: G1/S.
[5] abbreviates: cell cycle stage: early G1 (4.5 h after nocodazole release).
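Throughout, for melting temperature (median over replicates), in situ: HeLa Kyoto cells synchronized by double thymidine or nocodazole block, proteins quantified by TMT10plex mass spectrometry, three independent biological replicates.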
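Throughout, for solubility change mitosis vs G1/S (difference of NP-40 vs SDS log2 ratios): synchronized HeLa Kyoto cells (double thymidine block for G1/S, nocodazole release for mitosis), protein amounts in NP-40 versus SDS lysates quantified by mass spectrometry, three biological replicates.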
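Throughout, for solubility in G1/S (NP-40 vs SDS abundance): HeLa Kyoto cells arrested at G1/S by double thymidine block, proteins quantified by TMT10plex mass spectrometry in mild NP-40 versus SDS extracts, three biological replicates.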
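Throughout, for thermal stability score vs G1/S (z-score of summed log2 fold changes over temperatures): synchronized HeLa Kyoto cells, proteins quantified by TMT10plex mass spectrometry, three biological replicates, mitosis taken 0.5 h after nocodazole release, G1/S directly after double thymidine block.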

Consider “MAMQKIFAREILDSRGNPTVEVDLHTAKGRFRAAVPSGASTGIYEALELRDGDKGRYLGKGVLKAVENINNTLGPALLQKKLSVVDQEKVDKFMIELDGTENKSKFGANAILGVSLAVCKAGAAEKGVPLYRHIADLAGNPDLILPVPAFNVINGGSHAGNKLAMQEFMILPVGASSFKEAMRIGAEVYHHLKGVIKAKYGKDATNVGDEGGFAPNILENNEALELLKTAIQAAGYPDKVVIGMDVAASEFYRNGKYDLDFKSPDDPARHITGEKLGELYKSFIKNYPVVSIEDPFDQDDWATWTSFLSGVNIQIVGDDLTVTNPKRIAQAVEKKACNCLLLKVNQIGSVTESIQACKLAQSNGWGVMVSHRSGETEDTFIADLVVGLCTGQIKTGAPCRSERLAKYNQLMRIEEALGDKAIFAGRKFRNPKAK [ENO3]”, for which, in the series with HeLa Kyoto [1], the “solubility change mitosis (log2)” value stood at 0.0137. The melting temperature in the series with HeLa Kyoto [2] (cell cycle stage: G1/S) worked out at 55.2 °C; with HeLa Kyoto [2] (cell cycle stage: mitosis), 56.6 °C. For the same sequence, the figures for the thermal stability score in the series with HeLa Kyoto [3] (setting [5]) and in the series with HeLa Kyoto [3] (cell cycle stage: mitosis) were -0.939 and -1.58, respectively. The “solubility in G1/S (log2)” value in the series with HeLa Kyoto [4] was found to be 0.117.

For the sequence “MANEVIKCKAAVAWEAGKPLSIEEIEVAPPKAHEVRIKIIATAVCHTDAYTLSGADPEGCFPVILGHEGAGIVESVGEGVTKLKAGDTVIPLYIPQCGECKFCLNPKTNLCQKIRVTQGKGLMPDGTSRFTCKGKTILHYMGTSTFSEYTVVADISVAKIDPLAPLDKVCLLGCGISTGYGAAVNTAKLEPGSVCAVFGLGGVGLAVIMGCKVAGASRIIGVDINKDKFARAKEFGATECINPQDFSKPIQEVLIEMTDGGVDYSFECIGNVKVMRAALEACHKGWGVSVVVGVAASGEEIATRPFQLVTGRTWKGTAFGGWKSVESVPKLVSEYMSKKIKVDEFVTHNLSFDEINKAFELMHSGKSIRTVVKI [ADH5]”, in the series on HeLa Kyoto [1], the “solubility change mitosis (log2)” value was -0.171. For the same sequence, the values for the melting temperature in the series with HeLa Kyoto [2] (cell cycle stage: G1/S) and in the series on HeLa Kyoto [2] (cell cycle stage: mitosis) were 56.8 °C and 56.7 °C, respectively. Further, the results for the thermal stability score in the series on HeLa Kyoto [3] (setting [5]) and with HeLa Kyoto [3] (cell cycle stage: mitosis) were -4.67 and -2.86, respectively. Also, the “solubility in G1/S (log2)” value with HeLa Kyoto [4] came to 0.147.

In the case of “MANIAVQRIKREFKEVLKSEETSKNQIKVDLVDENFTELRGEIAGPPDTPYEGGRYQLEIKIPETYPFNPPKVRFITKIWHPNISSVTGAICLDILKDQWAAAMTLRTVLLSLQALLAAAEPDDPQDAVVANQYKQNPEMFKQTARLWAHVYAGAPVSSPEYTKKIENLCAMGFDRNAVIVALSSKSWDVETATELLLSN [UBE2K]”, in the series with HeLa Kyoto [1], the “solubility change mitosis (log2)” value was -0.0147. Further, the melting temperature with HeLa Kyoto [2] (cell cycle stage: G1/S) came to 53.2 °C; in the series with HeLa Kyoto [2] (cell cycle stage: mitosis), 53.9 °C. In addition, the thermal stability score with HeLa Kyoto [3] (setting [5]) was -2.17; with HeLa Kyoto [3] (cell cycle stage: mitosis), 0.646. For the same sequence, the “solubility in G1/S (log2)” value with HeLa Kyoto [4] is 0.332.

In the case of “MANLLKTVVTGCSCPLLSNLGSCKGLRVKKDFLRTFYTHQELWCKAPVKPGIPYKQLTVGVPKEIFQNEKRVALSPAGVQNLVKQGFNVVVESGAGEASKFSDDHYRVAGAQIQGAKEVLASDLVVKVRAPMVNPTLGVHEADLLKTSGTLISFIYPAQNPELLNKLSQRKTTVLAMDQVPRVTIAQGYDALSSMANIAGYKAVVLAANHFGRFFTGQITAAGKVPPAKILIVGGGVAGLASAGAAKSMGAIVRGFDTRAAALEQFKSLGAEPLEVDLKESGEGQGGYAKEMSKEFIEAEMKLFAQQCKEVDILISTALIPGKKAPVLFNKEMIESMKEGSVVVDLAAEAGGNFETTKPGELYIHKGITHIGYTDLPSRMATQASTLYSNNITKLLKAISPDKDNFYFDVKDDFDFGTMGHVIRGTVVMKDGKVIFPAPTPKNIPQGAPVKQKTVAELEAEKAATITPFRKTMSTASAYTAGLTGILGLGIAAPNLAFSQMVTTFGLAGIVGYHTVWGVTPALHSPLMSVTNAISGLTAVGGLALMGGHLYPSTTSQGLAALAAFISSVNIAGGFLVTQRMLDMFKRPTDPPEYNYLYLLPAGTFVGGYLAALYSGYNIEQIMYLGSGLCCVGALAGLSTQGTARLGNALGMIGVAGGLAATLGVLKPGPELLAQMSGAMALGGTIGLTIAKRIQISDLPQLVAAFHSLVGLAAVLTCIAEYIIEYPHFATDAAANLTKIVAYLGTYIGGVTFSGSLIAYGKLQGLLKSAPLLLPGRHLLNAGLLAASVGGIIPFMVDPSFTTGITCLGSVSALSAVMGVTLTAAIGGADMPVVITVLNSYSGWALCAEGFLLNNNLLTIVGALIGSSGAILSYIMCVAMNRSLANVILGGYGTTSTAGGKPMEISGTHTEINLDNAIDMIREANSIIITPGYGLCAAKAQYPIADLVKMLTEQGKKVRFGIHPVAGRMPGQLNVLLAEAGVPYDIVLEMDEINHDFPDTDLVLVIGANDTVNSAAQEDPNSIIAGMPVLEVWKSKQVIVMKRSLGVGYAAVDNPIFYKPNTAMLLGDAKKTCDALQAKVRESYQK [NNT]”, the “solubility change mitosis (log2)” value in the series on HeLa Kyoto [1] is -0.0884. Further, the melting temperature in the series with HeLa Kyoto [2] (cell cycle stage: G1/S) and with HeLa Kyoto [2] (cell cycle stage: mitosis) was 53.4 °C throughout. Further, the figures for the thermal stability score with HeLa Kyoto [3] (setting [5]) and in the series with HeLa Kyoto [3] (cell cycle stage: mitosis) were -1.09 and -1.47, respectively. In addition, in the series with HeLa Kyoto [4], the “solubility in G1/S (log2)” value turned out to be 0.11.
